The values below are quoted from earlier work in publication PMC11446229.

Read-outs that look alike come from different tables or passages of the source.

A word on the Kd: it is a measure of binding affinity in units of concentration.

The target in data set [1] is IscS (Escherichia coli) (UniProt P0A6B7).
The next data set has as its target SufS (Escherichia coli) (UniProt P77444). As to the kind of experiment: surface plasmon resonance.
The next data set concerns the target SufS (Bacillus subtilis) (UniProt O32164).
For data set [2], the target named is IscS (Escherichia coli) (UniProt P0A6B7). This is another data set of the same source.

IscS (Escherichia coli), sequence (P0A6B7 whole entry): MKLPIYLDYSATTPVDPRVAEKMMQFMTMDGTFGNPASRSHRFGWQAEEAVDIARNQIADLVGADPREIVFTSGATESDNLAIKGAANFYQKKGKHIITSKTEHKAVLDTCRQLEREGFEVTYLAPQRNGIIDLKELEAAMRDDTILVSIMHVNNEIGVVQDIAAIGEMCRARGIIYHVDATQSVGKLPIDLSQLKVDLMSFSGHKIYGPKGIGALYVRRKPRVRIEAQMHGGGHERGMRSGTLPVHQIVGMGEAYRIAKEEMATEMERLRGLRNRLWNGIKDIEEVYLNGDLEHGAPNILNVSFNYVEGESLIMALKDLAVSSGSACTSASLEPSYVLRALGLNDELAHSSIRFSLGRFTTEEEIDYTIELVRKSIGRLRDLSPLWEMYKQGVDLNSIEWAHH
SufS (Escherichia coli), sequence (P77444 whole entry): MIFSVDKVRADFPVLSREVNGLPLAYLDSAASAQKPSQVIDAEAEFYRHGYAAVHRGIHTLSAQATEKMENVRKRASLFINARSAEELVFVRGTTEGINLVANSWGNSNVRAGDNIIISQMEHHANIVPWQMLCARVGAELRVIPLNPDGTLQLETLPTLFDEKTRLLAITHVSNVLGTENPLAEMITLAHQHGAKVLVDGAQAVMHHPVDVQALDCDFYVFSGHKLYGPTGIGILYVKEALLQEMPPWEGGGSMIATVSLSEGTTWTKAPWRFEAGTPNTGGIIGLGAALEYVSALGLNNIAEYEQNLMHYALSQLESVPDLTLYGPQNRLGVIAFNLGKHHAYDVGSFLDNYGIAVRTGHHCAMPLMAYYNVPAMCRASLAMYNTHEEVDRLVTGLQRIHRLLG
SufE, sequence (P76194 whole entry): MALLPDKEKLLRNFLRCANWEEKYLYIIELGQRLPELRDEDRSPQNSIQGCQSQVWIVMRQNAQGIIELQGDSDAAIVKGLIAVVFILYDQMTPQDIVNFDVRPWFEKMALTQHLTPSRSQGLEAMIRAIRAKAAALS
TusA, sequence (P0A890 whole entry): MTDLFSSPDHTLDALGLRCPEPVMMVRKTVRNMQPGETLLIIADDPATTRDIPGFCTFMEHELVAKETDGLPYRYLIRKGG
SufS (Bacillus subtilis), sequence (O32164 whole entry): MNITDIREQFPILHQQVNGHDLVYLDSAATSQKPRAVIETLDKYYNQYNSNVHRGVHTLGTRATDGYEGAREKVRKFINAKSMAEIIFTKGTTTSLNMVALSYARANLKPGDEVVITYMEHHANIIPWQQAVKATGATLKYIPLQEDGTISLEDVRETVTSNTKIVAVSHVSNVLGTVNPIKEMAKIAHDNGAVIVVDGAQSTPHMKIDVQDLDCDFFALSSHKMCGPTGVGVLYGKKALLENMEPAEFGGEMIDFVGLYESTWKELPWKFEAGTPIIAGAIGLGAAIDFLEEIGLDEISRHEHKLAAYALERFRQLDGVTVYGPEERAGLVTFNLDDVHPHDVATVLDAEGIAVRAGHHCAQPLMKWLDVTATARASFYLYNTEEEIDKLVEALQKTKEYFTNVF
SufU, sequence (O32163 whole entry): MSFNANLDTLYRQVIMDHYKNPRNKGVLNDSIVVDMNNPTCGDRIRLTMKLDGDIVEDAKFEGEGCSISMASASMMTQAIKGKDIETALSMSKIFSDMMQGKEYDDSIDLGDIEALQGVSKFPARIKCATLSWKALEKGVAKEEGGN
CyaY, sequence (P27838 whole entry): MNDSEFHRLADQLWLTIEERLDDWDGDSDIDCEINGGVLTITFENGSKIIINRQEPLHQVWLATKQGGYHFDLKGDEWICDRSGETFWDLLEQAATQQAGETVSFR

Consider CyaY (from UniProt P27838), for which the dissociation constant (Kd) in the data set with IscS (Escherichia coli) [1] was 23 µM.

As for SufE (from UniProt P76194), the dissociation constant Kd with SufS (Escherichia coli) is 0.36 µM.

Turning to SufU (from UniProt O32163), the Kd with SufS (Bacillus subtilis) is 3 µM. Consider TusA (from UniProt P0A890), for which the Kd with IscS (Escherichia coli) [2] is 8 µM.
